Measured values taken from patent publication US20120023600A1 (Novartis, published 2012).
Changes are numbered by the printed parent chain.

How the values were obtained:
[1] = target: T1, carboxyl terminal truncated DKK1 (deltaC, residues 1-185) with C-terminal HA epitope (Homo sapiens (Human), UniProt O94907 32-185); assay: immunoprecipitation from conditioned medium of transfected Hek293 cells, protein G beads, SDS-PAGE, anti-HA blot [panel B.]
T1 construct: Secreted into conditioned medium of transfected Hek293 cells; Contains Cys-1 but not Cys-2
T1 sequence: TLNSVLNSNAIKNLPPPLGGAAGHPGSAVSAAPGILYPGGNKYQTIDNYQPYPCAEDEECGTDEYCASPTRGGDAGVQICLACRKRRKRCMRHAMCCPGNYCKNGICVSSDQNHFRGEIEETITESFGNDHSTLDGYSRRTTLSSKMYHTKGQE
Description: Full-length (FL, containing residues 1-266), carboxyl terminal truncated (ΔC, containing residues 1-185), and amino terminal truncated (ΔN, containing residues 1-60 plus residues 157-266), are fused with an HA epitope at their C termini, and Cloned into a mammalian expression vector under the control of the cytomegalovirus (CMV) promoter. […] 1/10 of total input is loaded as control.

[2] = target: T2, wild type (WT) rhDKK1 (HEK HIS epitope tagged Batch# BTP7757) (human, UniProt O94907 32-266, N-glycosylated (one theoretical N-linked site at amino acid 256)); assay: SPR (Biacore T100)
T2 construct: Made in HEK cells; also called WT DKK1; rhDKK1 (recombinant human DKK1) (Batch BTP7757)
T2 sequence: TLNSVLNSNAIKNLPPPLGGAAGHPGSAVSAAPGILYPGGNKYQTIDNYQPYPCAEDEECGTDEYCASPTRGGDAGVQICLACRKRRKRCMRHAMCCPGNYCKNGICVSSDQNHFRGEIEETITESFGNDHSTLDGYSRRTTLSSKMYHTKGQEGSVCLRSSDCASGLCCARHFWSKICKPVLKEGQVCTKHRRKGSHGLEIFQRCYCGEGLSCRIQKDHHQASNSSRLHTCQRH

[3] = target: T3, N-linked deglycosylated rhDKK1 (human, UniProt O94907 32-266, N-linked glycan removed with the enzyme PNGase F); assay: SPR (Biacore T100)
T3 construct: Same HIS-tagged HEK protein as WT rhDKK1 (Batch BTP7757) after PNGase F treatment; also called N-DEGLY DKK1; DKK1 (N-degly)
T3 sequence: T2 sequence

[4] = target: T2, wild type (WT) rhDKK1 (HEK HIS epitope …); assay: SPR, Biacore T100, CM5 chip; antibody captured on immobilised anti-human IgG1 Fc, rhDKK1 0.195-6.25 nM as analyte; 1:1 binding with mass transport; mean of three experiments with standard deviation [6B]
Description: (§1) FIG. 6. […] Anti-Human IgG1 Fc (Jackson Immuno Research, Cat#109-006-098) is immobilized onto each flow cell, followed by capture of a lead candidate at an expected capture of about 100 RU. […] The normalized data (background subtracted) are fit to a 1:1 binding with mass transport model using Kinetics analysis in BIA evaluation 1.0 software. This experiment is carried out in triplicate, and data presented are the average of these three experiments with standard deviation.

recombinant human DKK1 [5] = target: T4, recombinant human DKK1 (human, UniProt O94907 32-266); assay: cell-based or functional assay
T4 sequence: T2 sequence

human DKK3 = human DKK3 (human, UniProt Q9UBP4 22-350); assay: SPR (Biacore T100); NSB = No Significant binding, not detectable above background
human DKK3, sequence (Q9UBP4 other isoform, or with tags, fused parts or gaps limits assumed): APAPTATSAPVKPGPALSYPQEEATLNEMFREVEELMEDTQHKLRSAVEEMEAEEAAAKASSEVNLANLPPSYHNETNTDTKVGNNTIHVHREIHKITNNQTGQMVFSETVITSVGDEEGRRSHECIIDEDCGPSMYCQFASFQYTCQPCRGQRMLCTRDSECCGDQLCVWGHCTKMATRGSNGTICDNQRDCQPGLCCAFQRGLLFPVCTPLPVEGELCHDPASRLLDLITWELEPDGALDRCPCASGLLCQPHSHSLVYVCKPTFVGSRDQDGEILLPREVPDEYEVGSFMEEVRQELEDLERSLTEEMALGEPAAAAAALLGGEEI

[6] = target: T3, N-linked deglycosylated rhDKK1; assay: SPR (Biacore T100); remark: listed apart in the source
human DKK4 [7] = target: T5, human DKK4 (human, UniProt Q9UBT3 19-224); assay: SPR (Biacore T100)
T5 construct: also called Dickkopf-4
T5 sequence: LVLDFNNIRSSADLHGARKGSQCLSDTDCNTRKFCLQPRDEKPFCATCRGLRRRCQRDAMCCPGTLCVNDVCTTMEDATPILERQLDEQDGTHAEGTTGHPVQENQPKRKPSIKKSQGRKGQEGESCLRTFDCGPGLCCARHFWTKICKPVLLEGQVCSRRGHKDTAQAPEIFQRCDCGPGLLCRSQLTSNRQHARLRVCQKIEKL

[8] = target: T2, wild type (WT) rhDKK1 (HEK HIS epitope …); assay: SPR (Biacore T100), antibody captured by anti-human IgG1 Fc, DKK in flow; average of three experiments
Description: as §1

human DKK4 [9] = target: T5, human DKK4; assay: as above
Description: as §1

human DKK2 = target: T6, human DKK2 (human, UniProt Q9UBU2 34-259); assay: immunoprecipitation
T6 construct: tested by immunoprecipitation
T6 sequence: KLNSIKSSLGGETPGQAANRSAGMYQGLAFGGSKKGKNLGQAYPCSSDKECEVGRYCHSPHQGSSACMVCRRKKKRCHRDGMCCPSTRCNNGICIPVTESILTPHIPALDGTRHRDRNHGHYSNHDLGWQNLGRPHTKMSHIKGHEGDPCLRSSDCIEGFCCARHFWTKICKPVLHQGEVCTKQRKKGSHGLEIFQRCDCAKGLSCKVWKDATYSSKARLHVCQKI

mouse DKK1 (R&D Systems) = target: T7, mouse DKK1 (R&D Systems) (mouse, UniProt O54908 32-272); assay: cell-based or functional assay
T7 sequence (looked up): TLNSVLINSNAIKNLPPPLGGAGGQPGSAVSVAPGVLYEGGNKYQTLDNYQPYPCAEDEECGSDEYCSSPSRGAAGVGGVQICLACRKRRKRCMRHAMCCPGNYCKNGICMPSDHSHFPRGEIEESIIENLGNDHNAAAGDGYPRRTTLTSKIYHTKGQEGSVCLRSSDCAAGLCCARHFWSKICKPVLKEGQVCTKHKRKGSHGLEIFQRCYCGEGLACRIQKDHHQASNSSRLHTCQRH

cynomolgus DKK1 = target: T8, cynomolgus DKK1 (cynomolgus monkey (Macaca fascicularis), UniProt A0A7N9IE82 32-266); assay: cell-based or functional assay
T8 sequence: T2 sequence with H114N, T150S, S166T

recombinant human DKK1 [10] = target: T4, recombinant human DKK1; assay: cell-based or functional assay; remark: listed apart in the source
rat DKK1 (Novartis) = target: T9, rat DKK1 (Novartis) (rat, UniProt A6I0Z0 32-270); assay: cell-based or functional assay
T9 sequence: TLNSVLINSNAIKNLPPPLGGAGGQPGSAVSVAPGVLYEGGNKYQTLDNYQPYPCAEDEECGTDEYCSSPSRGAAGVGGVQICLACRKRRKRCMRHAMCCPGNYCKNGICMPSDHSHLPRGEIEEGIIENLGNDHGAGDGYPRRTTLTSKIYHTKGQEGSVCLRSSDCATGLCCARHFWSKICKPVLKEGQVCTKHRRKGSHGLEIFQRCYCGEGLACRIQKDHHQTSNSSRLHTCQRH

- binding result [1]: no binding
- Kd [2]: 0.00311 nM
- koff [2]: 2.32e-05 s⁻¹
- kon [2]: 7.45e+06 M⁻¹ s⁻¹
- Kd [3]: 0.216 nM
- koff [3]: 0.000307 s⁻¹
- kon [3]: 1.42e+06 M⁻¹ s⁻¹
- koff [4]: 9e-06 s⁻¹
- kon [4]: 4.6e+06 M⁻¹ s⁻¹
- apparent EC50, TCF/LEF luciferase reporter (SuperTopflash, Kremen) assay (recombinant human DKK1 [5]): 0.16 nM
- binding result (human DKK3): no binding
- fold lower affinity than for WT DKK1 [6]: 100 fold
- fold lower affinity than for DKK1 (human DKK4 [7]): ~100 fold
- Kd [8]: 0.002 nM
- Kd (human DKK4 [9]): 0.297 nM
- binding result (human DKK2): no binding
- Reactivation of wnt3a signaling (TOPFlash) EC50 (pM) (mouse DKK1 (R&D Systems)): 60.5 pM
- Reactivation of wnt3a signaling (TOPFlash) EC50 (pM) (cynomolgus DKK1): 54.2 pM
- Reactivation of wnt3a signaling (TOPFlash) EC50 (pM) (recombinant human DKK1 [10]): 80.6 pM
- Reactivation of wnt3a signaling (TOPFlash) EC50 (pM) (rat DKK1 (Novartis)): 255 pM
B1: anti-DKK1/4 antibody (antibody, V domains shown)
VH: QVQLVESGGGLVQPGGSLRLSCAASGFTFSSYWMSWVRQAPGKGLEWVSGISYSGSNTHYADSVKGRFTISRDNSKNTLYLQMNSLRAEDTAVYYCARMGIDLDYWGQGTLVTVSS
VL: DIALTQPASVSGSPGQSITISCTGTSSDVGGFNYVSWYQQHPGKAPKLMIHDGSNRPSGVSNRFSGSKSGNTASLTISGLQAEDEADYYCQSWDVSPITAVFGGGTKLTVLG
notes: also called neutralizing anti-DKK1/4 antibody; NVP-anti-DKK1/4 antibody-NX
